Here are results for one substance from patent US20220064272A1.

The target of experiment [1] is TauC3 (C-terminally truncated tau fragment ending at aspartate 421 of htau40) (human) (UniProt P10636). The experiment is described as follows: binding ELISA on coated TauC3, OD650; right table (HM variants); isotype control. For orientation: ELISA stands for enzyme-linked immunosorbent assay.
Experiment [2] has the same target. The experiment is described as follows: binding ELISA on coated TauC3, OD650; left table (HC variants); isotype control.

TauC3 (C-terminally truncated tau fragment ending at aspartate 421 of htau40) (human), sequence (P10636 other isoform, or with tags, fused parts or gaps): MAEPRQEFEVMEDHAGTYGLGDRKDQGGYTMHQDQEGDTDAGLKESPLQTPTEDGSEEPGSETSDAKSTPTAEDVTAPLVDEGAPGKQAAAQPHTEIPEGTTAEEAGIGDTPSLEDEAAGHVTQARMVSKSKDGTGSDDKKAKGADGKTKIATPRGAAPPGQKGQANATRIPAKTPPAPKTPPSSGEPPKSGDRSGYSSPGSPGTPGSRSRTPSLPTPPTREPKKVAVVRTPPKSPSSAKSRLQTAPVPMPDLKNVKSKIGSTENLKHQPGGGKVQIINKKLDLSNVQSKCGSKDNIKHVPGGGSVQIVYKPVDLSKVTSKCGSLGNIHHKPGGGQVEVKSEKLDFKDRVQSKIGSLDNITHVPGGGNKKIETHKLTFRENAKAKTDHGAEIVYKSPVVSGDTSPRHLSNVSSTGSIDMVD

Take isotype control antibody: the EC50 in experiment [1] and in experiment [2] was 15.5 nM in each case.

As usually defined, the EC50 is the concentration giving half of the maximal effect. Read a low EC50 as an effect from little substance.
